Measurements: the supplement of paper PMC7877785
± gives the uncertainty stated by the source.

Assay: self-splicing fitness, log relative to wild type (ln ratio); higher = more splicing; Tetrahymena group I intron in knt gene, E. coli kanamycin selection, DiMSum; sequences stand for … in CUCUCU…GGAGGGAAAAGUUAUCAGGCAUGCACCUGGUAGCUAGUCUUUAAACCAAUAGAUUGCAUCGGUUUAAAAGGCAAGACCGUCAAAUUGCGGGAAAGGGGUCAACAGCCGUUCAGUACCAAGUCUCAGGGGAAACUUUGAGAUGGCCUUGCAAAGGGUAUGGUAAUAAGCUGACGGACAUGGUCCUAACCACGCAGCCAAGUCCUAAGUCAACAGAUCUUCUGUUGAUAUGGAUGCAGUUCACAGACUAAAUGUCGGUCGGGGAAGAUGUAUUCUUCUCAUAAGAUAUAGUCGGACCUCUCCUUAAUGGGAGCUAGCGGAUGAAGUGAUGCAACACUGGAGCCGCUGGGAACUAAUUUGUAUGCGAAAGUAUAUUGAUUAGUUUUGGAGUACUCGUGGUCG
Summary of the method: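 The eight P1ex-region nucleotides of an intron in the knt kanamycin-resistance gene on pET-22b(+) were all randomised and the library put into E. coli BL21(DE3). Six replicate transformations were grown overnight at 37°C or 30°C on LB agar with or without 25 μg/mL kanamycin, together with 100 μg/mL carbenicillin, 50 μM IPTG and 0.2% rhamnose. Colonies were pooled and amplicon-sequenced on an Illumina HiSeq 2500. Fitness from DiMSum is the error-weighted combination of wild-type-normalised replicate fold changes, kanamycin over none.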

Sequence	self-splicing fitness (ln) (30 °C)	self-splicing fitness (ln) (37 °C)
GUACAGCAAUAUUACGAGGC	-3.95 ± 0.46	-1.41 ± 0.18
GUACAGCAAUAUUACGCACG	-2.42 ± 0.28	-0.89 ± 0.19
GUACAGCAAUAUUACGCGCG	-1.45 ± 0.19	-0.578 ± 0.17
GUACAGCAAUAUUACGCGUG	-2 ± 0.061	-1.42 ± 0.072
GUACAGCAAUAUUACGGCCU	-1.84 ± 0.17	0.0868 ± 0.17
GUACAGCAAUAUUACGGGCC	-3.94 ± 0.3	-1.14 ± 0.15
GUACAGCAAUAUUACGGUUG	-3.9 ± 0.23	-1.86 ± 0.2
GUACAGCAAUAUUACGUAUU	-3.45 ± 0.14	-2.45 ± 0.17
GUACAGCAAUAUUACGUUUC	-3.44 ± 0.14	-1.87 ± 0.14
GUAGAGCAAUAUUACGACAU	0.278 ± 0.014	0.459 ± 0.033
GUAGAGCAAUAUUACGACUA	-0.724 ± 0.071	0.693 ± 0.11
GUAGAGCAAUAUUACGAGAG	–	-2.05 ± 0.36
GUAGAGCAAUAUUACGAUAC	-1.42 ± 0.13	-0.561 ± 0.18
GUAGAGCAAUAUUACGAUUU	-1.13 ± 0.12	-0.037 ± 0.21
GUAGAGCAAUAUUACGCAUA	-1.58 ± 0.14	-1.59 ± 0.17
GUAGAGCAAUAUUACGCCAC	-1.7 ± 0.29	–
GUAGAGCAAUAUUACGCGAA	-1.12 ± 0.058	-0.709 ± 0.077
GUAGAGCAAUAUUACGCGAG	-1.69 ± 0.14	-0.548 ± 0.14
GUAGAGCAAUAUUACGCGUA	-1.64 ± 0.2	-0.093 ± 0.25
GUAGAGCAAUAUUACGGAAA	-2.18 ± 0.28	-2.18 ± 0.22
GUAGAGCAAUAUUACGGUAU	-1.38 ± 0.083	-0.286 ± 0.1
GUAGAGCAAUAUUACGGUCA	-1.47 ± 0.098	-0.0887 ± 0.12
GUAGAGCAAUAUUACGGUCU	-1.46 ± 0.1	-0.783 ± 0.14
GUAGAGCAAUAUUACGUCAA	-2.01 ± 0.14	-2.38 ± 0.29
GUAGAGCAAUAUUACGUCUA	-1.34 ± 0.11	-0.919 ± 0.13

Sequence	self-splicing fitness (ln) (30 °C)	self-splicing fitness (ln) (37 °C)
GUAGAGCAAUAUUACGUCUC	-0.285 ± 0.092	-0.305 ± 0.099
GUAGAGCAAUAUUACGUGAU	-2.29 ± 0.2	-1.36 ± 0.19
GUAGAGCAAUAUUACGUGGG	-2.75 ± 0.17	-2.08 ± 0.2
GUAGAGCAAUAUUACGUGUU	-3.68 ± 0.21	-2.04 ± 0.19
GUAGAGCAAUAUUACGUUCA	-0.476 ± 0.1	-0.627 ± 0.11
GUAGAGCAAUAUUACGUUUA	-2.09 ± 0.17	-1.39 ± 0.17
GUAUAGCAAUAUUACGAAAA	–	-1.18 ± 0.22
GUAUAGCAAUAUUACGAAAG	-3.15 ± 0.43	-2.06 ± 0.35
GUAUAGCAAUAUUACGAACA	-2.44 ± 0.27	-1.21 ± 0.27
GUAUAGCAAUAUUACGAACG	-1.91 ± 0.32	–
GUAUAGCAAUAUUACGAAGG	-3.44 ± 0.36	-1.61 ± 0.29
GUAUAGCAAUAUUACGAGAA	–	-2.32 ± 0.49
GUAUAGCAAUAUUACGAGGG	-3.15 ± 0.26	-0.987 ± 0.23
GUAUAGCAAUAUUACGAUAA	-0.869 ± 0.12	-0.771 ± 0.16
GUAUAGCAAUAUUACGCACG	-1.99 ± 0.19	-0.994 ± 0.3
GUAUAGCAAUAUUACGCAGG	-3.15 ± 0.45	-3.36 ± 0.47
GUAUAGCAAUAUUACGCAUG	-3.35 ± 0.24	-1.01 ± 0.17
GUAUAGCAAUAUUACGCCUA	-1.64 ± 0.27	-0.116 ± 0.22
GUAUAGCAAUAUUACGCCUG	-2.67 ± 0.11	-0.647 ± 0.1
GUAUAGCAAUAUUACGCCUU	-2.11 ± 0.29	-0.499 ± 0.24
GUAUAGCAAUAUUACGCGAG	-1.31 ± 0.11	-1.47 ± 0.12
GUAUAGCAAUAUUACGCGCA	-1.2 ± 0.17	-0.955 ± 0.14
GUAUAGCAAUAUUACGCGGA	-3.08 ± 0.33	-0.662 ± 0.2
GUAUAGCAAUAUUACGCGUC	-2.87 ± 0.27	-0.113 ± 0.24
GUAUAGCAAUAUUACGGGGG	-3.63 ± 0.37	-2.53 ± 0.48

Sequence	self-splicing fitness (ln) (30 °C)	self-splicing fitness (ln) (37 °C)
GUAUAGCAAUAUUACGGUAG	-1.43 ± 0.095	-1.23 ± 0.15
GUAUAGCAAUAUUACGGUGC	-2.45 ± 0.23	-1.76 ± 0.36
GUAUAGCAAUAUUACGUACA	-2.07 ± 0.28	-0.449 ± 0.23
GUAUAGCAAUAUUACGUACU	-3.8 ± 0.39	-2.05 ± 0.2
GUAUAGCAAUAUUACGUAUC	-2.07 ± 0.18	-0.978 ± 0.2
GUAUAGCAAUAUUACGUCCG	-2.98 ± 0.18	-1.21 ± 0.17
GUAUAGCAAUAUUACGUGCC	-3.23 ± 0.34	-2.54 ± 0.31
GUAUAGCAAUAUUACGUGGU	-3.14 ± 0.23	-1.29 ± 0.15
GUAUAGCAAUAUUACGUGUU	-3.38 ± 0.18	-1.63 ± 0.18
GUCAAGCAAUAUUACGAAAG	-3.72 ± 0.4	-1.39 ± 0.49
GUCAAGCAAUAUUACGAAUA	-1.85 ± 0.16	-1.42 ± 0.14
GUCAAGCAAUAUUACGACGC	-1.35 ± 0.11	0.832 ± 0.18
GUCAAGCAAUAUUACGACGU	-1.26 ± 0.056	0.099 ± 0.07
GUCAAGCAAUAUUACGAGCA	-1 ± 0.35	-2.29 ± 0.28
GUCAAGCAAUAUUACGAGGC	-3.94 ± 0.24	-2.83 ± 0.18
GUCAAGCAAUAUUACGCAUC	-3.22 ± 0.13	-1.74 ± 0.18
GUCAAGCAAUAUUACGCCAA	–	-1.52 ± 0.28
GUCAAGCAAUAUUACGCCUG	-3.6 ± 0.25	-2.6 ± 0.22
GUCAAGCAAUAUUACGCGUG	-2.92 ± 0.16	-1.78 ± 0.16
GUCAAGCAAUAUUACGCGUU	-2.07 ± 0.076	-0.761 ± 0.097
GUCAAGCAAUAUUACGCUUU	-2.41 ± 0.21	-1.73 ± 0.16
GUCAAGCAAUAUUACGGAAC	-3.13 ± 0.24	-3.19 ± 0.21
GUCAAGCAAUAUUACGGCUC	-0.927 ± 0.057	0.181 ± 0.084
GUCAAGCAAUAUUACGGGUG	-4.19 ± 0.24	-2.73 ± 0.17
GUCAAGCAAUAUUACGGUCU	-2.7 ± 0.084	-0.906 ± 0.075

Sequence	self-splicing fitness (ln) (30 °C)	self-splicing fitness (ln) (37 °C)
GUCAAGCAAUAUUACGGUGU	-2.05 ± 0.071	-0.734 ± 0.083
GUCAAGCAAUAUUACGGUUC	-0.665 ± 0.068	-0.255 ± 0.1
GUCAAGCAAUAUUACGUACG	-2.46 ± 0.14	-1.9 ± 0.17
GUCAAGCAAUAUUACGUAUG	-4.08 ± 0.13	-2.6 ± 0.11
GUCAAGCAAUAUUACGUCAG	-3.55 ± 0.23	-3.26 ± 0.37
GUCAAGCAAUAUUACGUCCU	-2.13 ± 0.11	-1.04 ± 0.11
GUCAAGCAAUAUUACGUGCG	-2.29 ± 0.1	-0.638 ± 0.1
GUCAAGCAAUAUUACGUUAG	-4.36 ± 0.24	-3.3 ± 0.23
GUCCAGCAAUAUUACGAAUC	0.437 ± 0.16	0.114 ± 0.2
GUCCAGCAAUAUUACGACCA	-0.7 ± 0.21	-0.517 ± 0.17
GUCCAGCAAUAUUACGAGAG	-1.15 ± 0.078	0.117 ± 0.077
GUCCAGCAAUAUUACGAGGC	-2.32 ± 0.22	-2.35 ± 0.37
GUCCAGCAAUAUUACGAUAC	-0.876 ± 0.082	-0.0588 ± 0.099
GUCCAGCAAUAUUACGAUUA	-0.767 ± 0.074	-0.551 ± 0.077
GUCCAGCAAUAUUACGCAAC	-0.987 ± 0.099	-0.844 ± 0.11
GUCCAGCAAUAUUACGCCCC	-1.09 ± 0.18	-0.607 ± 0.18
GUCCAGCAAUAUUACGCGAU	-3.24 ± 0.19	-2.4 ± 0.19
GUCCAGCAAUAUUACGCUCU	-0.327 ± 0.1	0.137 ± 0.12
GUCCAGCAAUAUUACGCUGG	-4.01 ± 0.12	-3.25 ± 0.11
GUCCAGCAAUAUUACGGAAA	-0.248 ± 0.095	0.62 ± 0.12
GUCCAGCAAUAUUACGGAUU	-2.84 ± 0.09	-0.789 ± 0.091
GUCCAGCAAUAUUACGGCAU	-0.147 ± 0.085	-0.171 ± 0.093
